{"source": "the Human Domainome abundance scans (Beltran et al. 2025)", "parents": {"B1": {"name": "Peripheral plasma membrane protein CASK, residues 488 to 569; numbered along this chain, O14936 (parent)", "chain": "VRLVQFQKNTDEPMGITLKMNELNHCIVARIMHGGMIHRQGTLHVGDEIREINGISVANQTVEQLQKMLREMRGSITFKIVP"}}, "note": "± gives the uncertainty stated by the source."}
{"variants_of": "B1", "experiment": "abundance fitness (aPCA) (normalised: wild type 0, dead -1); higher = more abundant; growth selection in yeast, the domain comes from the species named", "settings": "Homo sapiens"}
{"variant": "VRLVQFQKNTFEPMGITLKMNELNHCIVARIMHGGMIHRQGTLHVGDEIREINGISVANQTVEQLQKMLREMRGSITFKIVP", "abundance fitness": "-0.251 ± 0.16"}
{"variant": "VRLVQFQKNTSEPMGITLKMNELNHCIVARIMHGGMIHRQGTLHVGDEIREINGISVANQTVEQLQKMLREMRGSITFKIVP", "abundance fitness": "0.009 ± 0.04"}
{"variant": "VRLVQFQKNTCEPMGITLKMNELNHCIVARIMHGGMIHRQGTLHVGDEIREINGISVANQTVEQLQKMLREMRGSITFKIVP", "abundance fitness": "-0.136 ± 0.057"}
{"variant": "VRLVQFQKNTIEPMGITLKMNELNHCIVARIMHGGMIHRQGTLHVGDEIREINGISVANQTVEQLQKMLREMRGSITFKIVP", "abundance fitness": "-0.142 ± 0.074"}
{"variant": "VRLVQFQKNTREPMGITLKMNELNHCIVARIMHGGMIHRQGTLHVGDEIREINGISVANQTVEQLQKMLREMRGSITFKIVP", "abundance fitness": "-0.023 ± 0.029"}
{"variant": "VRLVQFQKNTKEPMGITLKMNELNHCIVARIMHGGMIHRQGTLHVGDEIREINGISVANQTVEQLQKMLREMRGSITFKIVP", "abundance fitness": "-0.054 ± 0.061"}
{"variant": "VRLVQFQKNTPEPMGITLKMNELNHCIVARIMHGGMIHRQGTLHVGDEIREINGISVANQTVEQLQKMLREMRGSITFKIVP", "abundance fitness": "-0.069 ± 0.043"}
{"variant": "VRLVQFQKNTGEPMGITLKMNELNHCIVARIMHGGMIHRQGTLHVGDEIREINGISVANQTVEQLQKMLREMRGSITFKIVP", "abundance fitness": "-0.034 ± 0.029"}
{"variant": "VRLVQFQKNTVEPMGITLKMNELNHCIVARIMHGGMIHRQGTLHVGDEIREINGISVANQTVEQLQKMLREMRGSITFKIVP", "abundance fitness": "-0.072 ± 0.032"}
{"variant": "VRLVQFQKNTMEPMGITLKMNELNHCIVARIMHGGMIHRQGTLHVGDEIREINGISVANQTVEQLQKMLREMRGSITFKIVP", "abundance fitness": "-0.11 ± 0.06"}
{"variant": "VRLVQFQKNTYEPMGITLKMNELNHCIVARIMHGGMIHRQGTLHVGDEIREINGISVANQTVEQLQKMLREMRGSITFKIVP", "abundance fitness": "-0.22 ± 0.077"}
{"variant": "VRLVQFQKNTTEPMGITLKMNELNHCIVARIMHGGMIHRQGTLHVGDEIREINGISVANQTVEQLQKMLREMRGSITFKIVP", "abundance fitness": "0.055 ± 0.049"}
{"variant": "VRLVQFQKNTAEPMGITLKMNELNHCIVARIMHGGMIHRQGTLHVGDEIREINGISVANQTVEQLQKMLREMRGSITFKIVP", "abundance fitness": "-0.027 ± 0.031"}
{"variant": "VRLVQFQKNTQEPMGITLKMNELNHCIVARIMHGGMIHRQGTLHVGDEIREINGISVANQTVEQLQKMLREMRGSITFKIVP", "abundance fitness": "0.021 ± 0.05"}
{"variant": "VRLVQFQKNTLEPMGITLKMNELNHCIVARIMHGGMIHRQGTLHVGDEIREINGISVANQTVEQLQKMLREMRGSITFKIVP", "abundance fitness": "-0.092 ± 0.038"}
{"variant": "VRLVQFQKNTWEPMGITLKMNELNHCIVARIMHGGMIHRQGTLHVGDEIREINGISVANQTVEQLQKMLREMRGSITFKIVP", "abundance fitness": "-0.175 ± 0.038"}
{"variant": "VRLVQFQKNTHEPMGITLKMNELNHCIVARIMHGGMIHRQGTLHVGDEIREINGISVANQTVEQLQKMLREMRGSITFKIVP", "abundance fitness": "0.075 ± 0.077"}
{"variant": "VRLVQFQKNTEEPMGITLKMNELNHCIVARIMHGGMIHRQGTLHVGDEIREINGISVANQTVEQLQKMLREMRGSITFKIVP", "abundance fitness": "-0.05 ± 0.03"}
{"variant": "VRLVQFQKNTNEPMGITLKMNELNHCIVARIMHGGMIHRQGTLHVGDEIREINGISVANQTVEQLQKMLREMRGSITFKIVP", "abundance fitness": "0.08 ± 0.05"}
{"variant": "VRLVQFQKNTDEPIGITLKMNELNHCIVARIMHGGMIHRQGTLHVGDEIREINGISVANQTVEQLQKMLREMRGSITFKIVP", "abundance fitness": "0.055 ± 0.037"}
{"variant": "VRLVQFQKNTDEPQGITLKMNELNHCIVARIMHGGMIHRQGTLHVGDEIREINGISVANQTVEQLQKMLREMRGSITFKIVP", "abundance fitness": "-0.531 ± 0.07"}
{"variant": "VRLVQFQKNTDEPKGITLKMNELNHCIVARIMHGGMIHRQGTLHVGDEIREINGISVANQTVEQLQKMLREMRGSITFKIVP", "abundance fitness": "-0.784 ± 0.1"}
{"variant": "VRLVQFQKNTDEPCGITLKMNELNHCIVARIMHGGMIHRQGTLHVGDEIREINGISVANQTVEQLQKMLREMRGSITFKIVP", "abundance fitness": "-0.127 ± 0.046"}
{"variant": "VRLVQFQKNTDEPAGITLKMNELNHCIVARIMHGGMIHRQGTLHVGDEIREINGISVANQTVEQLQKMLREMRGSITFKIVP", "abundance fitness": "-0.078 ± 0.036"}
{"variant": "VRLVQFQKNTDEPTGITLKMNELNHCIVARIMHGGMIHRQGTLHVGDEIREINGISVANQTVEQLQKMLREMRGSITFKIVP", "abundance fitness": "-0.165 ± 0.042"}
{"variant": "VRLVQFQKNTDEPLGITLKMNELNHCIVARIMHGGMIHRQGTLHVGDEIREINGISVANQTVEQLQKMLREMRGSITFKIVP", "abundance fitness": "0.001 ± 0.029"}
{"variant": "VRLVQFQKNTDEPNGITLKMNELNHCIVARIMHGGMIHRQGTLHVGDEIREINGISVANQTVEQLQKMLREMRGSITFKIVP", "abundance fitness": "-0.337 ± 0.047"}
{"variant": "VRLVQFQKNTDEPSGITLKMNELNHCIVARIMHGGMIHRQGTLHVGDEIREINGISVANQTVEQLQKMLREMRGSITFKIVP", "abundance fitness": "-0.149 ± 0.033"}
{"variant": "VRLVQFQKNTDEPRGITLKMNELNHCIVARIMHGGMIHRQGTLHVGDEIREINGISVANQTVEQLQKMLREMRGSITFKIVP", "abundance fitness": "-0.858 ± 0.078"}
{"variant": "VRLVQFQKNTDEPFGITLKMNELNHCIVARIMHGGMIHRQGTLHVGDEIREINGISVANQTVEQLQKMLREMRGSITFKIVP", "abundance fitness": "-0.01 ± 0.04"}
{"variant": "VRLVQFQKNWDEPMGITLKMNELNHCIVARIMHGGMIHRQGTLHVGDEIREINGISVANQTVEQLQKMLREMRGSITFKIVP", "abundance fitness": "-0.086 ± 0.031"}
{"variant": "VRLVQFQKNVDEPMGITLKMNELNHCIVARIMHGGMIHRQGTLHVGDEIREINGISVANQTVEQLQKMLREMRGSITFKIVP", "abundance fitness": "-0.113 ± 0.028"}
{"variant": "VRLVQFQKNYDEPMGITLKMNELNHCIVARIMHGGMIHRQGTLHVGDEIREINGISVANQTVEQLQKMLREMRGSITFKIVP", "abundance fitness": "-0.097 ± 0.064"}
